From PMC3597663 (Nucleic Acids Research, 2013)

Target: Mycobacterium tuberculosis RsdA^1-94 (Mycobacterium tuberculosis, UniProt P9WJ71 1-94)
Assay: SPR

Chain of Mycobacterium tuberculosis RsdA^1-94 (P9WJ71 1-94): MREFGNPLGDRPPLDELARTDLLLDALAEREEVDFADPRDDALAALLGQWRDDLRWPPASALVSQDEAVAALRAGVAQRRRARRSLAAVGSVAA

B1: -35 promoter binding domain of Mycobacterium tuberculosis σ^D (σ^D4), residues 141-212 (domain or fragment)
chain: MAIEADSVTRMNELLEILPAKQREILILRVVVGLSAEETAAAVGSTTGAVRVAQHRALQRLKDEIVAAGDYA
B1 showed a Kd of 10.3 ± 3.5 µM.
